From patent US20160130575

Target: alpha-thrombin (Homo sapiens) (UniProt P00734+P00734)
Assay: flow
Details: bead-based fluorescence; measured here; sequence not given

| Substance | Kd [nM] |
| --- | --- |
| Bock thrombin aptamer | 2.1 |
| Tasset thrombin aptamer | 10.4 |
